Measured values: patent US7763704B2, “Sushi peptide multimer” (priority 2003, dated 2010)

Key:
[1] = ELISA-based LPS binding assay; design: species or system Escherichia coli 055:B5; conditions: peptide concentration achieving 50% of maximum binding to LPS on the ELISA plate
Method: LPS was coated overnight on 96-well plates. Varying concentrations of peptides were allowed to interact with the immobilized LPS. The amount of bound peptides was determined by rabbit anti-S3 IgG and quantitated by ABTS substrate. The average OD405nm of the triplicate samples were calculated and plotted with the corresponding concentration.
The polysorp 96-well plate (MaxiSorp™, Nunc) was first coated with 100 μl per well of 4 μg/ml (approximately 1 μM) of LPS diluted in pyrogen-free phosphate-buffered saline (PBS). The plate was sealed and incubated overnight at room temperature. The wells were aspirated and washed 4 times with 300 μl wash solution (PBS containing 0.05% Tween-20). The wells were blocked with wash solution containing 2% BSA for 1 h at room temperature. After washing 2 times, varying concentrations of peptides were allowed to interact with bound LPS at room temperature for 3 h. Bound peptides were detected by incubation with rabbit anti-S3 antibody and 1:2000 of goat anti-rabbit antibody conjugated with HRP. Each antibody was incubated for 2 h at 37° C. In the final step, 100 μl of substrate, ABTS (Boehringer Mannheim), was added. The absorbance was measured at 405 nm with reference wavelength at 490 nm.

[2] = Surface plasmon resonance (BIAcore 2000, HPA chip) realtime interaction analysis between peptides and LPS; format: binding; conditions: 20 mM Tris-Cl, pH7.3; HPA chip immobilized with lipid A; mean of three independent experiments
Method: Surface plasmon resonance (SPR) analysis of the real time interaction between peptides and LPS was performed with BIAcore 2000 (Pharmacia) using HPA chip (Tan et al, 2000b). The affinity constant was calculated using BIAevaluation software 3.0. The mean values were obtained from three independent experiments.
At 4 μg/ml, both recombinant peptides reached saturation of binding to LPS (FIG. 4), while the chemically synthesized peptide continued linearly and required 20 μg/ml to reach saturation of binding with LPS (data not shown). The EBC50 (Endotoxin Binding Concentration) of the peptide, which achieves 50% of maximum binding to LPS on the ELISA plate, reflects the binding activity of peptide to LPS, with the lower EBC50 indicating higher potency. […] The kinetics of binding of peptides to LPS in 20 mM Tris-Cl, pH7.3, was also measured by SPR analysis with BIAcore 2000 using HPA chip, which was immobilized with lipid A (bioactive moiety of LPS). The Kd values of chemically synthesized S3, rS3-1mer and rS3-4mer are (7.80±2.18)×10^−7 M, (4.74±2.34)×10^−8 M, (1.71±1.86)×10^−8 M, respectively.

[3] = system: LPS-induced limulus amoebocyte lysate (LAL) reaction; assay: Endotoxin neutralization assay based on anti-LAL test (LAL Kinetic-QCL); format: biochemical, Escherichia coli 055:B5; conditions: for ENC50 (50% endotoxin-neutralizing concentration), inhibition of LPS-induced LAL assay: against 5 EU/ml of LPS
Source text: The LAL Kinetic-QCL kit utilizes the initial part of the LPS-triggered cascade in limulus amoebocyte lysate to achieve an enzymatic reaction, which catalyses the release of p-nitroaniline from a synthetic substrate, producing a yellow color, which is quantifiable by absorbance at 405nm. The ENC50 (Endotoxin Neutralization Concentration) refers to the peptide concentration required to neutralize 50% of a predetermined quantity of endotoxin. A low ENC50 indicates high potency of the peptide for endotoxin neutralization.
In this assay, peptides of different concentrations were incubated for 1 h at 37° C. with or without an equal volume of LPS in disposable, endotoxin-free borosilicate tubes. Fifty microliters of each mixture was then dispensed into wells of a sterile microtiter plate (Nunclon™ Δsurface, Nunc). Fifty microliters of freshly reconstituted LAL reagent was dispensed into each well.

[4] = system: LPS-induced hTNF-α secretion in THP-1 cells; assay: Suppression of LPS-induced hTNF-α secretion in human THP-1 cells; format: cell-based; conditions: for ENC50, concentration to achieve 50% inhibition of LPS-induced hTNF-α production: THP-1 cells incubated with 50 EU/ml of LPS, 6 h
Method: THP-1 cells were cultured at 37° C. in a humidified environment in the presence of 5% CO2. RPMI 1640 medium was supplemented with 10% fetal bovine serum (FBS), penicillin (100 U/ml), and streptomycin (100 μg/ml). The cells were maintained at a density of 2.5×10^5-6 cells/ml. THP-1 monocytes were transformed into macrophages by addition of phorbol myristic acid, PMA (Sigma) at a stock of 0.3 mg/ml in dimethyl sulfoxide to give a final concentration of 30 ng/ml and 0.01% dimethyl sulfoxide. PMA-treated cell suspensions were immediately plated into 96-well microtiter plate at a density of 4×10^5 cells/ml and allowed to differentiate for 48 h at 37° C. The culture medium was removed and the cells were washed twice with serum-free RPMI 1640. Thereafter, the macrophages were stimulated with 50 EU/ml LPS (a specific activity of LPS that has been standardized by LAL test against FDA-approved LPS standards), peptides alone or LPS (preincubated with various concentrations of peptides) and incubated at 37° C. After 6 h, the culture medium was collected and hTNF-α concentration in the supernatants was assayed using ELISA.

[5] = compared with rS3-1mer and chemically synthesized S3

In the case of “rS3-1mer: recombinant S3 monomer from acid digestion of rS3-4mer, with additional Asp and Pro at the ends, SEQ ID NO:7 (PHAEHKVKIGVEQKYGQFPQGTEVTYTCSGNYFLMD)”, the “EBC50 (Endotoxin Binding Concentration)” value [1] is reported as 1.02 µg/mL, the Kd [2] is reported as 47.4 nM and the “ENC50 (50% endotoxin-neutralizing concentration), inhibition of LPS-induced LAL assay” value [3] is reported as 9.2 µg/mL. The “ENC50, concentration to achieve 50% inhibition of LPS-induced hTNF-α production” value [4] was 83.2 µg/mL.

B1: rS3-4mer: recombinant tetramer of S3 peptide in tandem repeat with Asp-Pro linkers, 18.4 kDa, SEQ ID NO:9 (protein)
chain: PQDPHAEHKVKIGVEQKYGQFPQGTEVTYTCSGNYFLMDPQDPHAEHKVKIGVEQKYGQFPQGTEVTYTCSGNYFLMDPQDPHAEHKVKIGVEQKYGQFPQGTEVTYTCSGNYFLMDPQDPHAEHKVKIGVEQKYGQFPQGTEVTYTCSGNYFLMD
In the case of B1, the “EBC50 (Endotoxin Binding Concentration)” value [1] is reported as 0.41 µg/mL, the Kd [2] is reported as 17.1 nM and the “ENC50 (50% endotoxin-neutralizing concentration), inhibition of LPS-induced LAL assay” value [3] is reported as 5.4 µg/mL. For the same molecule, the “fold stronger LPS neutralization efficacy than the monomeric peptides (LAL inhibition)” value [3, 5] was 2 fold, the “ENC50, concentration to achieve 50% inhibition of LPS-induced hTNF-α production” value [4] was 40.4 µg/mL and the “fold higher anti-LPS activity than the monomers (suppression of TNF-α release)” value [4, 5] was 2 fold.
